Assay: yeast display, Sf9 membrane polyspecificity reagent, FACS + sequencing; frameworks hold sequencing errors
In short: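 Using colony PCR, genes from sorted yeast display clones were amplified, then sequenced on MiSeq at 2 × 250 and filtered by CDR length. The clones had been stained with 10% biotinylated, detergent-solubilized Sf9 membrane reagent for 1 hour at 4 °C and sorted by FACS into low and high (top ~1%) gates on anti-HA and streptavidin fluorescence. Polyreactivity labels come from the gate of origin.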

Row | Sequence | polyreactivity (PSR sort gate)
1 | QVQLVESGGGLVQAGGSLRLSCAASGRIFTKNAMGWYRQAPGKERELVAAISWSTSRTYYADSVKGRFTISRDNAKNTVYLQMNSLKPEDTAVYYCAAVYRLRGAFSRGYWGQGTQVTVSS | high polyreactivity
2 | QVQLVESGGGLVPAGGSLRLSCAASGSTFYIYAMGWYRQAPGKERELVAAISRRGSSTYYADSVKGRFTISRDNAKNTVYLQMNSLIPEDTAVYYCAASQRHDHYYWGQGTQVTVSS | high polyreactivity
3 | QVQLVESGGGLVQAGGSLRLSCAASGFIFRYYAMAWYRQAPGKERELVASISRRGGSTYYADSVKGRFTISRDNSKNTFYLQMIRLIPEDTAVYYCAADVVNTVYYPGYDYLGQGTQVTVSS | high polyreactivity
4 | QVQLVESGGGLVQAGGSLRLSCAASGSTFDINAMGWYRQAPGKERHLVAAITYDTTTTYYADSVKGRFTISRDNAKNTVYLLMNSLKPEDTAVYYCAVEGLLGDTTYVQGYPYWYNYWGQGTQVTVSS | low polyreactivity
5 | QVQLVESGGGLVQAGGSLSLSCAASGSIFDYYDMGWYRQSPGKERQLVAAITGSGGNTYYADSVKGRFTISRDNAKNTVYLQMNSLKPEDTAVYYCAAYGLYGAHTGYGSWGQCTQVTVSS | high polyreactivity
6 | QVQLVESGGGLVQAGGSLRLSCAPSGFTFSRYAMGWYRQAPGKERELVAAITRGGGNTYYADSVKGRFTISRDNAKNTVYLQMNSLKPEDTAVYYCNAQVGNFGYRSGGYDYWGQGTQVTVSS | high polyreactivity
7 | QVQLVESGGGLVQAGGSLRLSCAASGLTIITNAMGWYRQAPGKERELVAAISGTGGSTYYADSVKGRFTISRDNAKNTVYLQMNSLKPEDTAVYYCAAAPYTFWVGDSWGQGTQVTVSS | high polyreactivity
8 | QVQLLESGGGLVQAGGSLRLSCAASGYTFAYYAMGWYRQAPGKERELVATISWSDGSTYYADSVKGRFTISRDNAKNTVYLQMNSLKPEDTAVYYCAADTPGYYTYYGFGYWGQGTQVTVSS | low polyreactivity
9 | QVQLVETGGCLVQAGGSLRLSCAASGFIFYIYAMGWYRQAPGKERELVAAITSGGSTYYADSVKGRFTITRDNAKNTVYLQMNSLKPDDTAVYYCASESYYGYDYWGQGTQVTVSS | low polyreactivity
10 | QVQLGDSGGGLGQAGGSLRLSCAASGSTFASDTMGWYRQEPGKERYLVATISRPGGTTNYADSVKGRFTISRDNAKNTVYLQMNSLKPEDTAVFDCARRYPRYDFAYGYDYWGQGTQGTVSS | high polyreactivity
11 | QVQLVESGGGLVQAGGRLRLSCAASGSTIRLYAKGWYRQAPGKERELVAAISVSGGSTHYADSVKGRFTISRDNAKNTVYLQMNSLKPEDTAVYYCNAAGNPVSRYHYDYWGQGTQVTVSS | high polyreactivity
12 | QVQLVESGGGLVQAGGSLRLSCAASGNTLYTNAMGWYRQAPGKERELVAVISRGGSTYYADSVKGRFTISRDNAKNTVYLQMNSLKPEDTAVYYCATYGSSWSRAYGYWGQGTQVTVSS | high polyreactivity
13 | QVQLVESGGGLVQAGGSLRLSCAASGSIFSFYAMGWYRQAPGKERELVAAISRSGGSTYYADSVKGRFTISRDNAKNTVYLQMNSLKPEDTAVYYCAADYYYGTYDYWGQGTQVTVSS | low polyreactivity
14 | QVQLVESGGGLVQAGGSLRLSCAASGYTFYYNAMGWYRQATGKERELVAAISWSTSGTYYADSVKGRFTISRDNAKNTVYLQMYSLKPEYTAVYYCAAPSSGTITYDYWGQGTQVTVSS | low polyreactivity
15 | QVQLVESGGGLVQAGGSLRLICAASGFTFYKNTMGWYRQAPGKERELVAAISSSGSSTYYADSVKGRFTISRDNAKNTVYLQMNSLKPEDTAVYYCAAGRFAYHDDYWGQGTQVTVSS | high polyreactivity
16 | QVQLVESGGGLVQAGGSLRLSCAASGRIFYVYAMGWYRQAPGKERELVAAITSSGGTTYYADSVKGRFTISRDNAKNTVYLQMNSLKPEDTAVYYCNLIYRYGWGDYWGQGTQVTVSS | high polyreactivity
17 | QVQLVESGGGLVQAGGSHRLSCAASGITFPYYAMGCYRQAPVKERELVAAISSSGGSTYYADSVKGRFTISRDNAKNTVYLQMNSLKPEDTAVYYCNKRYVVYPGNYWRYDYWGQGTQVTVSS | high polyreactivity
18 | QVQLVESGGGLVQAGGSLRLSCAASGSTFALNAMGWYRQAPGKERELVAAIDDSGITYYADSVKGRFTISRDNAKNTVYLQMNSLKPDDTAVYYCAKKEWKSRTHAKGDQYPDDYWGQGTQVTVSS | low polyreactivity
19 | QFQLVESGGGLVQAGPSLLLSFAASGNTLHVYAMGRYRQAPGKERELVAAITSDVSTYYADSVKGRFTISRDNAKNTVYLQMHSLKPEDTAVYYFATTGYGSYLIYWGQGTQVTVSS | low polyreactivity
20 | QVQLVESGGGLVQAGGSLRLSCAASGLIFYSYAMGWYRQAPGKERELVAAISKRGGSTYYADSVKGRFTISRDNAKNTVYLQMNSLKPEDTAVYYCAAVIHGSSQYYGGTYGRYYWGQGTQVTVSS | high polyreactivity
21 | QVQLVESGGGLVQAGGSLRLSCAASGITFGRNTLGRYRQAPGKVRELVAAIDSGGNTYADSVKGRFTISRDNAKNTVYLQMNSLKPEDTAVYYCAVDGCEFSSYGYWGQGTQGTVSS | low polyreactivity

Row | Sequence | polyreactivity (PSR sort gate)
22 | QVQLVESGGGLVQAGGSLRLSCAASGRTFHVYAMGWYRQAPGKERELVATITDGSTNYADSVKGRFTISRDNAKNTVYLQMNRLKPEDNAVYYCATVRDWIPSGDYEYWGQCTQVTVSS | low polyreactivity
23 | QVQLVESGGGLVQAGGSLRLSCAASGSIFIQYDMGWYRQAPGKERELVATIRSCDSTTYADSVKGRFTISRDNAKNTVFLQVNSLKPEDTAVYYCAKDYRFDYDYDYWGQGTQVTVSS | low polyreactivity
24 | QVQLVESGGGLVQAGGSLRLSCAASGNIFVINAMGWYRQAPGKERELVAAISWSTANTYYADSVKGRFTISRDNAKNTVYLQLNSLKPEDTAVYYCAAVFRYYTYSGAVRYYYWGQGTQVTVSS | high polyreactivity
25 | QVQLVESGGGLVQAGGSLRLSCAASGRIFVTNAMGWYRQAPGKERELVAAISYRGGRTYYADSVKGRFTISRDNAKNTVYLQMNSLKPEDTAVYYCNAVTRGPFDYWGQGTQVTVSS | high polyreactivity
26 | QVQLVDSGGGLVQAGGSLRLSCAASGSTFRRNALGWYRQAPGKERELVAAITRSGGRTYYADSVKGRFTISRDNAKNTVYLQMNSLKPEDTAVYYCAARHAPTRYGYWGQGTQVTVSS | high polyreactivity
27 | QVQRVESGGGLVQAGGSLRLTCAASGLTFRTYAMGWYRQAPGKERELVAAISGTGGTTYYADSVKGRFTISRDNAKNTVYLQMNSLKPEDTAVYYCNKRWRRPYPYDYWGQGSQVTVSS | high polyreactivity
28 | QVQLVESGGGLVQAGGSLRLSCAASGGIFWSYAMGWYRQAPGKERELVAAISSGTYYADSVKGRFTISRDNAKNTVYLQMNSLIPEDTAVYYWNVQTYNVAWFYRYDMNYWGQGPQVTVSS | low polyreactivity
29 | QVQLVESGGGLVQAGGSLRLSCAASGFTFRRYDMGWYRQAPGKERELVATINRGGSTDYADSVKGRFTISRDNAKNTVYLQMNSLKPEDNAVYYCAADSYSTCADDYWGQGTQVTVSS | high polyreactivity
30 | QVQLVESGGGLVQAGGSLRLSCAASGGTFGAYAMGWYRQAPGKERELVAAISGSGARTYYADSVKGRFTISRDNAKNTVYVQMNSLKPEDTAVYYCAARSTGTRVGEYDYWGQGTQVTVSS | high polyreactivity
31 | QVQLVESGVGLVQAGGSLRLSCAASGYTIDWYTMGWYRQAPGKERELVAAISASGVRTYYADSVKGRFTISRDNAKNTVYLQMNSLKPEDTGVYYCNRVYSTSRITQYEFDYWGQGTQVTLSS | low polyreactivity
32 | QVQLVESGGGLVQAGGSLRLSCAASGRIFPGNAMGWYRQSPGKERELVAGISFSGGRTYYADSVKGRFSISRDNAKNTVYLQMNSLKPEDTAVYYCATKYQQHWWRYDYWGQGTQVTVSS | low polyreactivity
33 | QVQLVESGGGLVQAGGSLRLSCAASGSIIRGYTMGWYRQAPGKERELVADITQSTGSTYYADSVKGRFTISRDTAKNTVYFQMNSLKPEDTAVYYCAAVEGWYLFTSNYWGQGTQVNVSS | low polyreactivity
34 | QVQLVESAGGLVQAGGRLRLSCAASGFTFVYYVMGWYRQAPGKERELVAAISNSGGSTYYADSVKGRFTISRDNAKNSVYLEMNSLKPEDTAVYYCAAPPGGGKYRGYYYWGQGTQVTVSS | high polyreactivity
35 | QVQLVESGGGLVQAGGSLRLSCAASGSIFRTYVMGWYRQAPGKERELVAAISSSGGRTYYADSVKGRFTISRDNAKNTVYLLMNSLKPEDTAVYYCAAPRTSTRYRLTLQGVNQYDYWGQGTQVTVSS | high polyreactivity
36 | QVQLVESGGGLVQAGGSLRLSCAASGYTFSLYAMGWYRQAPGKERELVAAISSGDRTFYADSVKGRFTISRDNAKNTVYLQMNSLKPEDTAVYYCAARRYYVASIYRYDSWGQGTQVTVSS | high polyreactivity
37 | QVQLVESGGGLVQAGGSLRLSCAASGSIFRWYAMGWSRQAPGKERELVAAISKSGGTTYYADSVKGRFTISRDNAKNTVYLQMNSLKPEDTAVYYCAARRYPYGGYGYRYDYWGQGTQVTVSS | high polyreactivity
38 | QVQLVESGGGLVQAGGSLRLSCAASGSTFQSYAMGWYRQAPGKERELVAGITSGDSTNYADSVKGRFTISRDNAKNTVYLQMNSLKPEDTAVYYCNAVTQARYYYWGQGTQVTVSS | low polyreactivity
39 | HVQLVESGGGLVQAGGSLRLSCAASGLTFAQYAMGWYRQAPGNERALVAAITGSGGSTYYADSVKGRFTISRDNAKNTVYLQLNSLKPEDTAVYYCNKLFYRWRIVDKYYYWGQGTQVTVSS | high polyreactivity
40 | QVQHVESGGGIVQAGGSLRLSCAASGIIFSDYAMGWYRQARGKERELVATITRSVRTSYADSVKGRFTISRDNAKNTVYLQMNSLKPEDTAVYYCYADVVGAVIAYDYWGQGTQVTVSS | low polyreactivity
41 | QVQLVESGGGLVQAGGSLRLSCAASGRIFSGNAMGWYRQAPGKERELVAAISRGGSTDYADSVKGRFTISRDNAMNTVYLQMNSLKPEDTAVYYCAARVNGKRRRYDYWGQGTQVTVSS | high polyreactivity
